Measurements taken from patent US20230321287A1, “RADIOLABELLED GRPR-ANTAGONIST FOR USE AS THERAGNOSTIC” (NOVARTIS AG, priority 2019, published 2023).

Test: clinical
Settings: human, Relative radiotracer uptake
Source text: The primary objective was to characterize preliminary targeting properties of [68Ga] NeoB in patients with malignancies known to overexpress GRPR. The primary efficacy endpoints were: • Number and location of tumor lesions detected by [68Ga]-NeoBOMB1 overall and for each tumor type • Calculation of the ratio tumor/background standard uptake value (SUV) and %injected dose per gram of tissue (ID/g) and calculation of absorbed dose (mGy/MBq) in tumor overall and for each tumor type.
Accordingly, highest relative tracer uptake following administration of a bombesin antagonist is expected in pancreas, kidney, and liver (Roivainen et al, 2013).

## CC(C)CC(CC(C)C)NC(=O)[C@H](Cc1cnc[nH]1)NC(=O)CNC(=O)[C@@H](NC(=O)[C@H](C)NC(=O)[C@H](Cc1c[nH]c2ccccc12)NC(=O)[C@H](CCC(N)=O)NC(=O)[C@@H](Cc1ccccc1)NC(=O)COCC(=O)Nc1ccc(CNC(=O)CN2CCN(CC(=O)O)CCN(CC(=O)O)CCN(CC(=O)O)CC2)cc1)C(C)C [[68Ga]-NeoB, metal not drawn]
Liver, patient FR01-008, 15 min/38.6 min actual
  tissue uptake at 0.25 h: 0.00794 %ID/g
alveolar-interstitial (lungs), total radioactivity, patient FR01-009, 15 min/17.8 min actual
  tissue uptake at 0.25 h: 0.00124 %ID/g
alveolar-interstitial (lungs), total radioactivity, patient FR01-009, 60 min/60.7 min actual
  tissue uptake at 1 h: 0.000884 %ID/g
alveolar-interstitial (lungs), total radioactivity, patient FR01-009, 120 min/123.9 min actual
  tissue uptake at 2 h: 0.000591 %ID/g
alveolar-interstitial (lungs), total radioactivity, patient FR01-009, 240 min/207.9 min actual
  tissue uptake at 4 h: 0.000386 %ID/g
Heart wall, total radioactivity, patient FR01-009, 15 min/17.8 min actual
  tissue uptake at 0.25 h: 0.0034 %ID/g
Heart wall, total radioactivity, patient FR01-009, 60 min/60.7 min actual
  tissue uptake at 1 h: 0.00207 %ID/g
Heart wall, total radioactivity, patient FR01-009, 120 min/123.9 min actual
  tissue uptake at 2 h: 0.00142 %ID/g
Heart wall, total radioactivity, patient FR01-009, 240 min/207.9 min actual
  tissue uptake at 4 h: 0.000928 %ID/g
kidneys, total radioactivity, patient FR01-009, 15 min/17.8 min actual
  tissue uptake at 0.25 h: 0.0048 %ID/g
kidneys, total radioactivity, patient FR01-009, 60 min/60.7 min actual
  tissue uptake at 1 h: 0.0038 %ID/g
kidneys, total radioactivity, patient FR01-009, 120 min/123.9 min actual
  tissue uptake at 2 h: 0.00505 %ID/g
kidneys, total radioactivity, patient FR01-009, 240 min/207.9 min actual
  tissue uptake at 4 h: 0.00278 %ID/g
liver, total radioactivity, patient FR01-008, 60 min/62.6 min actual
  tissue uptake at 1 h: 0.00296 %ID/g
liver, total radioactivity, patient FR01-008, 120 min/123.2 min actual
  tissue uptake at 2 h: 0.00197 %ID/g
liver, total radioactivity, patient FR01-008, 240 min/221.1 min actual
  tissue uptake at 4 h: 0.00162 %ID/g
liver, total radioactivity, patient FR01-009, 15 min/17.8 min actual
  tissue uptake at 0.25 h: 0.00866 %ID/g
liver, total radioactivity, patient FR01-009, 60 min/60.7 min actual
  tissue uptake at 1 h: 0.00564 %ID/g
liver, total radioactivity, patient FR01-009, 120 min/123.9 min actual
  tissue uptake at 2 h: 0.00428 %ID/g
liver, total radioactivity, patient FR01-009, 240 min/207.9 min actual
  tissue uptake at 4 h: 0.00317 %ID/g
pancreas, total radioactivity, patient FR01-008, 15 min/38.6 min actual
  tissue uptake at 0.25 h: 0.0471 %ID/g
pancreas, total radioactivity, patient FR01-008, 60 min/62.6 min actual
  tissue uptake at 1 h: 0.0484 %ID/g
pancreas, total radioactivity, patient FR01-008, 120 min/123.2 min actual
  tissue uptake at 2 h: 0.0545 %ID/g
pancreas, total radioactivity, patient FR01-008, 240 min/221.1 min actual
  tissue uptake at 4 h: 0.0628 %ID/g
pancreas, total radioactivity, patient FR01-009, 15 min/17.8 min actual
  tissue uptake at 0.25 h: 0.0215 %ID/g
pancreas, total radioactivity, patient FR01-009, 60 min/60.7 min actual
  tissue uptake at 1 h: 0.0291 %ID/g
pancreas, total radioactivity, patient FR01-009, 120 min/123.9 min actual
  tissue uptake at 2 h: 0.0345 %ID/g
pancreas, total radioactivity, patient FR01-009, 240 min/207.9 min actual
  tissue uptake at 4 h: 0.0374 %ID/g
Red (active) marrow, total radioactivity, patient FR01-008, 15 min/38.6 min actual
  tissue uptake at 0.25 h: 0.00331 %ID/g
Red (active) marrow, total radioactivity, patient FR01-008, 60 min/62.6 min actual
  tissue uptake at 1 h: 0.00116 %ID/g
Red (active) marrow, total radioactivity, patient FR01-008, 120 min/123.2 min actual
  tissue uptake at 2 h: 0.000916 %ID/g
Red (active) marrow, total radioactivity, patient FR01-008, 240 min/221.1 min actual
  tissue uptake at 4 h: 0.000346 %ID/g
Red (active) marrow, total radioactivity, patient FR01-009, 15 min/17.8 min actual
  tissue uptake at 0.25 h: 0.00186 %ID/g
Red (active) marrow, total radioactivity, patient FR01-009, 60 min/60.7 min actual
  tissue uptake at 1 h: 0.00136 %ID/g
Red (active) marrow, total radioactivity, patient FR01-009, 120 min/123.9 min actual
  tissue uptake at 2 h: 0.000998 %ID/g
Red (active) marrow, total radioactivity, patient FR01-009, 240 min/207.9 min actual
  tissue uptake at 4 h: 0.000722 %ID/g
spleen, total radioactivity, patient FR01-008, 15 min/38.6 min actual
  tissue uptake at 0.25 h: 0.00409 %ID/g
spleen, total radioactivity, patient FR01-008, 60 min/62.6 min actual
  tissue uptake at 1 h: 0.00211 %ID/g
spleen, total radioactivity, patient FR01-008, 120 min/123.2 min actual
  tissue uptake at 2 h: 0.00141 %ID/g
spleen, total radioactivity, patient FR01-009, 15 min/17.8 min actual
  tissue uptake at 0.25 h: 0.00338 %ID/g
spleen, total radioactivity, patient FR01-009, 60 min/60.7 min actual
  tissue uptake at 1 h: 0.00256 %ID/g
spleen, total radioactivity, patient FR01-009, 120 min/123.9 min actual
  tissue uptake at 2 h: 0.00191 %ID/g
spleen, total radioactivity, patient FR01-009, 240 min/207.9 min actual
  tissue uptake at 4 h: 0.00145 %ID/g
Tumor lesion T1-lungL, total radioactivity, patient FR01-009, 15 min/17.8 min actual
  tissue uptake at 0.25 h: 0.00367 %ID/g
Tumor lesion T1-lungL, total radioactivity, patient FR01-009, 60 min/60.7 min actual
  tissue uptake at 1 h: 0.00455 %ID/g
Tumor lesion T1-lungL, total radioactivity, patient FR01-009, 120 min/123.9 min actual
  tissue uptake at 2 h: 0.00481 %ID/g
Tumor lesion T1-lungL, total radioactivity, patient FR01-009, 240 min/207.9 min actual
  tissue uptake at 4 h: 0.00385 %ID/g
Tumor lesion T2-lungR, total radioactivity, patient FR01-009, 15 min/17.8 min actual
  tissue uptake at 0.25 h: 0.00466 %ID/g
Tumor lesion T2-lungR, total radioactivity, patient FR01-009, 60 min/60.7 min actual
  tissue uptake at 1 h: 0.00463 %ID/g
Tumor lesion T2-lungR, total radioactivity, patient FR01-009, 120 min/123.9 min actual
  tissue uptake at 2 h: 0.00377 %ID/g
Tumor lesion T2-lungR, total radioactivity, patient FR01-009, 240 min/207.9 min actual
  tissue uptake at 4 h: 0.00248 %ID/g
Tumor lesion T3-liverL, total radioactivity, patient FR01-009, 15 min/17.8 min actual
  tissue uptake at 0.25 h: 0.0135 %ID/g
Tumor lesion T3-liverL, total radioactivity, patient FR01-009, 60 min/60.7 min actual
  tissue uptake at 1 h: 0.018 %ID/g
Tumor lesion T3-liverL, total radioactivity, patient FR01-009, 120 min/123.9 min actual
  tissue uptake at 2 h: 0.00984 %ID/g
Tumor lesion T3-liverL, total radioactivity, patient FR01-009, 240 min/207.9 min actual
  tissue uptake at 4 h: 0.0178 %ID/g
Tumor lesion T4-liverR1, total radioactivity, patient FR01-009, tumor lesion T4-liverR1, 15 min/17.8 min actual
  tissue uptake at 0.25 h: 0.013 %ID/g
Tumor lesion T4-liverR1, total radioactivity, patient FR01-009, tumor lesion T4-liverR1, 60 min/60.7 min actual
  tissue uptake at 1 h: 0.014 %ID/g
Tumor lesion T4-liverR1, total radioactivity, patient FR01-009, tumor lesion T4-liverR1, 120 min/123.9 min actual
  tissue uptake at 2 h: 0.0153 %ID/g
Tumor lesion T4-liverR1, total radioactivity, patient FR01-009, tumor lesion T4-liverR1, 240 min/207.9 min actual
  tissue uptake at 4 h: 0.0116 %ID/g
Tumor lesion T5-liverR2, total radioactivity, patient FR01-009, tumor lesion T5-liverR2, 15 min/17.8 min actual
  tissue uptake at 0.25 h: 0.015 %ID/g
